Reference: patent US12545899B2, “Luciferase enzymes for use with thermostable luciferins in bioluminescent assays” (Promega Corporation, priority 2018, dated 2026)
Residue numbers refer to the chain shown, from its start. Names and notes keep the numbering of the source.

How the values were obtained:
[1] = Purified enzyme activity of ATG-2890 with CS0280 (FIGS. 9C-9D); assay type: biochemical
Description: (§1) FIG. 9A includes a representative graph assessing the activities of luciferase enzyme variants ATG-2877, ATG-2624, and ATG-2890 in the presence of 5,5-disubstituted luciferin analog substrate. Luciferin analog compounds were diluted from 50 mM to 20 mM in reaction buffer (either Bright-Glo™ or Detection Reagent buffer). […] Reagent compositions included 50 μl Reaction Buffer+ATP, which was combined with 50 μl diluted enzyme. Plates were incubated at room temp for 30 minutes to minimize background, and 5 μl of luciferin analog substrate was added to a final concentration of 1 mM. Plates were read before and after compound addition at 3 mins and 20 mins.

[2] = Purified enzyme activity of ATG-2890 with CS0333 (FIGS. 9C-9D); assay type: biochemical
Description: as §1

[3] = Effect of V300G, L305F, S306P on activity with CS0333 (FIG. 13); assay type: biochemical; conditions: 1 mM ATP; 100 nM to 1 mM substrate; Bright-Glo buffer
Description: FIG. 13 includes a representative graph of the effects of amino acid substitutions V300G, L305F, and S306P on enzyme activity with the CS0333 analog. Reagent compositions included […]+1 mM ATP+100 nM to 1 mM substrate in Bright-Glo™ buffer.

[4] = Inhibition of luciferase enzyme variants by dehydro-F-luciferin; assay type: biochemical; conditions: for resistance to inhibition by dehydro F-luciferin: 1 μM F-luciferin, 1 mM ATP (FIG. 26); for inhibition by dehydro-F-luciferin relative to Ppe variant (SEQ ID NO: 1): Detection reagent buffer or Bright-Glo buffer (FIGS. 20, 21)
Description: Reagent compositions include 0.022 μM-366.97 μM Dehydro F-luciferin titration, 1 mM ATP, 1 μM F-luciferin, and 0.005 mg/ml enzyme. […] Both amino acid substitutions L305F and S306P conferred improved resistance to the inhibitor individually and in combination.

[5] = Kinetic analysis of Ppe variant, ATG-3707, ATG-4117 with D/L-luciferin; assay type: biochemical
Description: (§2) Kinetic tests of these luciferase enzyme variants were also conducted. […] Reagent compositions included 0.005 mg/ml luciferase enzyme variant+1 mM ATP, and 0.1 fM to 1 mM substrate in Bright-Glo™ (BG) or Detection Reagent (DR) buffers. The composition was incubated for 3 mins and read on GloMax® Multi+platform.
(§3) Table 8 below includes representative results of kinetic analysis of the thermostable luciferase variants of Ppe (SEQ ID NO: 1), ATG-3707, and ATG-4117. The Ppe variant (SEQ ID NO: 1) was tested with D/L-luciferin, and ATG-3707, and ATG-4117 were tested with CS0280 and CS0333.

[6] = Luminescence of ATG-3707 variants (second round epPCR) with CS0333; assay type: biochemical
Description: Reagent compositions included CS0333 diluted from 20 mM to 2 mM in reaction buffer with 2 mM ATP. […] Reactions were incubated at 25° C. for 3 min, and luminescence was read and then normalized to ATG-3707 activity tested in parallel.

[7] = Kinetic analysis of ATG-3707, ATG-4117 with CS0280; assay type: biochemical
Description: as §2, §3

[8] = Kinetic analysis of ATG-3707 variants with CS0333; assay type: biochemical
Description: Additionally, Table 5 (below) includes kinetic analysis of the ATG-3707 variants identified above. Reagent compositions included CS0333 serially diluted 10-fold from 1 mM to 10 fM in reaction buffer with 2 mM ATP. […] Reactions were incubated at 25° C. for 3 min, and luminescence was read and then normalized to ATG-3707 activity tested in parallel. […] Since C2157D2 was selected for improved brightness in CellTiterGlo® buffer over ATG-3707, it still had beneficial properties.

[9] = Vmax and Km of ATG-3707 with CS0333; assay type: biochemical
[10] = Activity and kinetics of ATG-3707 with CS0333 (FIGS. 19B-19D); assay type: biochemical
Description: Reagent compositions included 0.005 mg/ml enzyme in 1×TBS+0.5% Prionex, 1 mM substrate in buffer, and 1 mM ATP.

[11] = Kinetic analysis of ATG-3707, ATG-4117 with CS0333; assay type: biochemical
Description: as §2, §3

[12] = Vmax and Km of Ppe variant and ATG-3707 with D/L-luciferin; assay type: biochemical
[13] = Brightness of additional luciferase enzyme variants with CS0333; assay type: biochemical; conditions: Table 7A, 1 mM CS0333
Method in brief: (§4)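 Each variant at 0.005 mg/ml combined with 1 mM ATP plus 1 mM substrate in Bright-Glo or Detection Reagent buffer; luminescence recorded as relative brightness.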

[14] = Differential scanning fluorimetry (DSF) analysis; assay type: physicochemical; set-up: key to DSF Tm: melting temperature in °C (heated 30-95 °C at 1 °C/min); conditions: Table 7A
Method in brief: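 Thermal melt with 5× final Sypro Orange: ramp 1° C/min from 30 to 95° C, reading each 60 s, derivative of fluorescence plotted by temperature. Luciferase variants were in 20 mM HEPES pH 7.5, 200 mM NaCl, 1 mM EDTA; other enzymes in 50 mM HEPES pH 7.5, 100 mM NaCl, 2 mM EDTA.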

[15] = Brightness of additional luciferase enzyme variants with CS0280; assay type: biochemical; conditions: Table 7A, 1 mM CS0280
Method in brief: as §4

B1: ATG-2890: SEQ ID NO: 13; I240L+H244W+Y254S+T344A+I396K (protein)
chain: MADKNILYGPEPFYPLEDGTAGEQMFDALSRYAAIPGCIALTNAHTKENVLYEEFLKLSCRLAESFKKYGLKQNDTIAVCSENSLQFFLPVIASLYLGIIVAPVNDKYIERELIHSLGIVKPRIVFCSKNTFQKVLNVKSKLKSIETIIILDLNEDLGGYQCLNNFISQNSDSNLDVKKFKPYSFNRDDQVASIMFSSGTTGLPKGVMLTHKNIVARFSIAKDPTFGNAINPTSAILTVLPFHWGFGMMTTLGSFTCGFRVVLMHTFEEKLFLQSLQDYKVESTLLVPTLMAFLAKSALVEKYDLSHLKEIASGGAPLSKEIGEMVKKRFKLNFVRQGYGLTEATSAVLITPKGDAKPGSTGKIVPLHAVKVVDPTTGKILGPNEPGELYFKGPMKMKGYYNNEEATKAIIDNDGWLRSGDIAYYDNDGHFYIVDRLKSLIKYKGYQVAPAEIEGILLQHPYIVDAGVTGIPDEAAGELPAAGVVVQTGKYLNEQIVQDYVASQVSTAKWLRGGVKFLDEIPKGSTGKIDRKVLRQMLEKHTNGHHHHHHHH
- increase in activity with CS0280 compared to Ppe variant (SEQ ID NO: 1) ([1]; Bright-Glo Buffer): 120 fold
- increase in activity with CS0280 compared to Ppe variant (SEQ ID NO: 1) ([1]; Detection Buffer): 6 fold
- increase in activity with CS0333 compared to Ppe variant (SEQ ID NO: 1) ([2]; Bright-Glo Buffer): 1,470 fold
- increase in activity with CS0333 compared to Ppe variant (SEQ ID NO: 1) ([2]; Detection Buffer): 3,050 fold

B2: ATG-3549: SEQ ID NO: 14; H244W+T344A+I396K+V300G (protein)
chain: B1 chain with L240I, S254Y, V300G
- activity with CS0333 relative to Ppe variant (SEQ ID NO: 1) [3]: improved activity

B3: ATG-3550: SEQ ID NO: 15; H244W+T344A+I396K+V300G+L305F (protein)
chain: B1 chain with L240I, S254Y, V300G, L305F
- activity with CS0333 relative to Ppe variant (SEQ ID NO: 1) [3]: highest activity
- resistance to inhibition by dehydro F-luciferin [4]: conferred resistance to inhibition by dehydro F-luciferin

B4: ATG-3551: SEQ ID NO: 16; H244W+T344A+I396K+V300G+S306P (protein)
chain: B1 chain with L240I, S254Y, V300G, S306P
- activity with CS0333 relative to Ppe variant (SEQ ID NO: 1) [3]: improved activity
- resistance to inhibition by dehydro F-luciferin [4]: conferred resistance to inhibition by dehydro F-luciferin

B5: ATG-3552: SEQ ID NO: 17; H244W+T344A+I396K+V300G+L305P+S306P (protein)
chain: B1 chain with L240I, S254Y, V300G, L305F, S306P
- activity with CS0333 relative to Ppe variant (SEQ ID NO: 1) [3]: improved activity
- resistance to inhibition by dehydro F-luciferin [4]: conferred resistance to inhibition by dehydro F-luciferin

B6: ATG-3553: SEQ ID NO: 18; H244W+T344A+I396K+L305P+S306P (protein)
chain: B1 chain with L240I, S254Y, L305F, S306P
- activity with CS0333 relative to Ppe variant (SEQ ID NO: 1) [3]: improved activity
- resistance to inhibition by dehydro F-luciferin [4]: conferred resistance to inhibition by dehydro F-luciferin

B7: ATG3707: SEQ ID NO: 2; H244W+T344A+I396K+S193A+N228D+L305F+S306P+I109V (protein)
chain: B1 chain with I109V, S193A, N228D, L240I, S254Y, L305F, S306P
- Km ([5]; BrightGlo): 27.2 nM
- Vmax (RLU) ([5]; BrightGlo): 2,596,835 RLU
- Km ([5]; Detection Reagent): 1180 nM
- Vmax (RLU) ([5]; Detection Reagent): 6,820,106 RLU
- Luminescence (RLU) BrightGlo ([6]; BrightGlo buffer, 25° C., 3 min): 3887670 RLU
- Normalized Luminescence BrightGlo ([6]; BrightGlo buffer, normalized to ATG-3707): 1.00
- Luminescence (RLU) CellTiterGlo ([6]; CellTiterGlo buffer, 25° C., 3 min): 644571 RLU
- Normalized Luminescence CellTiterGlo ([6]; CellTiterGlo buffer, normalized to ATG-3707): 1.00
- Luminescence (RLU) Detection Reagent ([6]; Detection Reagent buffer, 25° C., 3 min): 5157310 RLU
- Normalized Luminescence Detection Reagent ([6]; Detection Reagent buffer, normalized to ATG-3707): 1.00
- Km ([7]; BrightGlo): 4.53 µM
- Vmax (RLU) ([7]; BrightGlo): 5,791,823 RLU
- Km ([7]; Detection Reagent): 93.5 µM
- Vmax (RLU) ([7]; Detection Reagent): 4,706,312 RLU
- Km ([8]; BrightGlo): 6.25 µM
- Vmax (RLU) ([8]; BrightGlo): 4,240,329 RLU
- Km ([8]; Detection Reagent): 113 µM
- Vmax (RLU) ([8]; Detection Reagent): 3,695,670 RLU
- Km ([9]; BrightGlo Buffer): 539 nM
- Vmax (RLU) ([9]; BrightGlo Buffer): 3,724,104 RLU
- Km ([9]; Detection Reagent Buffer): 4820 nM
- Vmax (RLU) ([9]; Detection Reagent Buffer): 5,458,906 RLU
- activity with CS0333 comparable to that of Ppe variant with luciferin ([10]; Bright-Glo and Detection Reagent buffers): ≤ 10 ×
- loss of performance with D/L-luciferin as compared to CS0333 ([10]; dimmer): about 1 log
- Km ([11]; BrightGlo): 3.61 µM
- Vmax (RLU) ([11]; BrightGlo): 828,567 RLU
- Km ([11]; Detection Reagent): 148 µM
- Vmax (RLU) ([11]; Detection Reagent): 42,242 RLU
- Km ([12]; BrightGlo Buffer): 0.03 µM
- Vmax (RLU) ([12]; BrightGlo Buffer): 2,033,235 RLU
- Km ([12]; CellTiterGlo buffer): 91.7 µM
- Vmax (RLU) ([12]; CellTiterGlo buffer): 4,840,502 RLU
- Km ([12]; Detection Reagent Buffer): 19.4 µM
- Vmax (RLU) ([12]; Detection Reagent Buffer): 4,499,483 RLU

B8: ATG-2624: SEQ ID NO: 3; I240L+Y254S+T344A+I396K (protein)
chain: B1 chain with W244H
- inhibition by dehydro-F-luciferin relative to Ppe variant (SEQ ID NO: 1) [4]: inhibited by dehydro-F-luciferin, but less so

B9: ATG-2625: SEQ ID NO: 4; N74N+H244R+V300G+I396K (protein)
chain: B1 chain with L240I, W244R, S254Y, V300G, A344T
- inhibition by dehydro-F-luciferin relative to Ppe variant (SEQ ID NO: 1) [4]: inhibited by dehydro-F-luciferin, but less so

B10: C7573H3: SEQ ID NO: 70; H244W+T344A+I396K+S193A+N228D+L305F+S306P+I109V+A316W (protein)
chain: B1 chain with L240I, S254Y, L305F, A344T, K396I
- Fold-improvement over ATG3707, CS0333 BG ([13]; Bright-Glo buffer): 4.35
- Fold-improvement over ATG3707, CS0333 DR ([13]; Detection Reagent buffer): 3.36
- Km ([5]; BrightGlo): 70.2 nM
- Vmax (RLU) ([5]; BrightGlo): 719,605 RLU
- Km ([5]; Detection Reagent): 2650 nM
- Vmax (RLU) ([5]; Detection Reagent): 817,287 RLU
- DSF Tm [14]: 61
- Fold-improvement over ATG3707, CS0280 BG ([15]; Bright-Glo buffer): 6.04
- Fold-improvement over ATG3707, CS0280 DR ([15]; Detection Reagent buffer): 7.48
- Km ([7]; BrightGlo): 13 µM
- Vmax (RLU) ([7]; BrightGlo): 7,188,109 RLU
- Km ([7]; Detection Reagent): 419 µM
- Vmax (RLU) ([7]; Detection Reagent): 7,879,793 RLU
- Km ([11]; BrightGlo): 12.4 µM
- Vmax (RLU) ([11]; BrightGlo): 1,601,921 RLU
- Km ([11]; Detection Reagent): 758 µM
- Vmax (RLU) ([11]; Detection Reagent): 124,964 RLU
